Data: US20120039908A1 (TRANSTECH PHARMA, published 2012)
Values joined by “and” are separate entries in the source; they are usually repeats but may differ in a detail not shown here. Identical values can stand only once.

Experiments:
[1] = molecular target: T1, Abeta (human Aβ peptide; Aβ1-40 or Aβ1-28, Table 5 does not say which) (human, UniProt P05067 672-711); experiment: ELISA, Abeta peptide coated on plate, sRAGE-Ig titrated, anti-human IgG-HRP
T1 construct: Coated on the ELISA plate at 20 µg/mL in 1% NH4OH; also called A-beta peptide; amyloid beta
T1 sequence (P05067 672-711 limits assumed): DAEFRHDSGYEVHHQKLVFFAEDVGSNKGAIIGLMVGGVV
Protocol: (§1) Assay for A3 peptide binding activities: Briefly, two human Aβ peptides were tested: Aβ1-40 (Catalogue# A-1153-2, Rpeptide), and Aβ1-28 (Catalogue#24232, AnaSpec). The plates were coated by 20 μg/mL peptide in 1% NH₄OH overnight at 4° C. The plate was then washed with blocking buffer (TBS pH8.0, 0.05% Tween20, and 1% BSA) and blocked for 1 hr at room temperature. All the other steps were performed essentially as described previously herein for S100b binding assay, supra.

[2] = molecular target: T2, S100b protein (Cat. No. 559290, Calbiochem); experiment: ELISA, S100b coated on plate; reference S1 control
T2 construct: Coated on the ELISA plate at 20 µg/mL in TBS pH 8.0 with 5 mM CaCl2; also called RAGE ligand S100b
T2 sequence (P04271 2-92, species assumed, looked up): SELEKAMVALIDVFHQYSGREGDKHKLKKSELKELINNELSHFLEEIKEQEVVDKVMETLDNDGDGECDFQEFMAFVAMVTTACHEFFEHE
Protocol: (§2) S100b binding ELISA: An ELISA assay plate was coated with 100 μL/well of 20 μg/mL S100b protein (Cat. No. 559290, Calbiochem, Gibbstown, N.J.) in coating buffer (Tris buffered saline [TBS], pH8.0, with 5 mM CaCl₂) overnight at 4° C. The plate was then washed three times with blocking buffer (TBS pH8.0, with 5 mM CaCl₂, 0.05% Tween20, and 1% bovine serum albumin [BSA]), and blocked with the blocking buffer for 1-1.5 hr. sRAGE-Ig fusion samples were prepared in a separate dilution plate, the highest concentration was 10 μg/mL in blocking buffer, with 1:4 serial dilution in blocking buffer down to 2.4 ng/mL. After blocking, the assay plate was washed with the blocking buffer and 100 μL of the samples were transferred from the dilution plate to the assay plate. The assay plate was incubated at room temperature for 2.5 hr. The assay plate was then washed three times with the blocking buffer, with 1 min soaking time between the washes. The horseradish peroxidase conjugated goat anti-human IgG (Cat. No. A2290, Sigma, St. Louis, Mo.) was added to the plate with 100 μL/well at 1:2500 dilution in the blocking buffer. The plate was incubated for 1 hr at room temperature. The assay plate was then washed three times with the blocking buffer again, and 100 μL 3,3′,5,5′-tetramethylbenzidine (TMB; Cat. No. 34022, Pierce, Rockford, Ill.) was added to each well and the plate was incubated for 8 minutes at room temperature. 100 μL of 1M H₂SO₄ was then added to each well, the plate was shaken and read at 450 nm on a microplate reader.

[3] = molecular target: T1, Abeta (human Aβ peptide; Aβ1-40 or …); experiment: ELISA, Abeta peptide coated on plate; reference S1 control
Protocol: as §1

[4] = molecular target: T2, S100b protein (Cat. No. 559290, …); experiment: ELISA, S100b coated on plate, sRAGE-Ig titrated, anti-human IgG-HRP
Protocol: as §2

[5] = molecular target: T1, Abeta (human Aβ peptide; Aβ1-40 or …); experiment: ELISA, Abeta peptide coated on plate; reference S1
Protocol: as §1

[6] = molecular target: T2, S100b protein (Cat. No. 559290, …); experiment: ELISA, S100b coated on plate; reference S1
Protocol: as §2, with “The assay plate was then washed three times with the blocking buffer again, and 100 μL 3,3′,5,5′-tetramethylbenzidine (TMB; Cat. No. 34022, Pierce, Rockford, Ill.) was added to each well and the plate was incubated for 8 minutes at room temperature.” left out

[7] = molecular target: T1, Abeta (human Aβ peptide; Aβ1-40 or …); experiment: ELISA, Abeta peptide coated on plate; reference S2F1
Protocol: as §1

[8] = molecular target: T2, S100b protein (Cat. No. 559290, …); experiment: ELISA, S100b coated on plate; reference S1F1
Protocol: as §2, with “The assay plate was then washed three times with the blocking buffer again, and 100 μL 3,3′,5,5′-tetramethylbenzidine (TMB; Cat. No. 34022, Pierce, Rockford, Ill.) was added to each well and the plate was incubated for 8 minutes at room temperature.” left out

B1: sRAGE-Ig fusion protein, sample S1 (control, from untreated CHO cells, unfractionated) (Fc fusion)
chain: QNITARIGEPLVLKCKGAPKKPPQRLEWKLNTGRTEAWKVLSPQGGGPWDSVARVLPNGSLFLPAVGIQDEGIFRCQAMNRNGKETKSNYRVRVYQIPGKPEIVDSASELTAGVPNKVGTCVSEGSYPAGTLSWHLDGKPLVPNEKGVSVKEQTRRHPETGLFTLQSELMVTPAPGGDPRPTFSCSFSPGLPRHRALRTAPIQPRVWEPVPLEEVQLVVEPEGGAVAPPSVFLFPPKPKDTLMISRTPEVTCVVVDVSHEDPEVKFNWYVDGVEVHNAKTKPREEQYNSTYRVVSVLTVLHQDWLNGKEYKCKVSNKALPAPIEKTISKAKGQPREPQVYTLPPSRDELTKNQVSLTCLVKGFYPSDIAVEWESNGQPENNYKTTPPVLDSDGPFFLYSKLTVDKSRWQQGNVFSCSVMHEALHNHYTQKSLSLSPGK
modifications: N-terminal Gln1 cyclized to pyroglutamic acid (pE1); N-linked glycan sites N2, N58, N288 (numbering without the signal): mixture 3-Glycan = 67%, 2-Glycan = 22%
notes: Mostly a non-covalent homodimer (about 78%), with about 19% heterodimer with a furin-cleaved Fc fragment; C-terminal Lys438 partly clipped; also called S1 = control (untreated); sRAGE-Fc
IC50 [1]: 1240 pM
Relative binding compared to control [2]: 100%
Relative binding compared to control [3]: 100%
IC50 [4]: 0.18 µg/mL and 1.8 nM

B2: sRAGE-Ig fusion protein, sample S2 (from CHO cells treated with tunicamycin, unfractionated) (Fc fusion)
chain: B1 chain
modifications: pE1; N-linked sites N2, N58, N288: mixture 3-Glycan = 42%, 2-Glycan = 16%, 0-Glycan = 31%
notes: Cells treated with 5 µg/mL tunicamycin for 3 days; also called S2 = TMYCN (treated with tunicamycin)
IC50 [1]: 820 pM
Relative binding compared to control [2]: 295%
fold binding relative to sample S1 [5]: ~1.5 fold
fold binding relative to sample S1 [6]: ~3 fold
Relative binding compared to control [3]: 151%
IC50 [4]: 0.061 µg/mL and 0.61 nM

B3: sRAGE-Ig fusion protein, sample 2 fraction 1 (S2F1), 3-glycan species from tunicamycin treated CHO cells (Fc fusion)
chain: B1 chain
modifications: pE1; N-linked glycans at all three sites N2, N58, N288 (3-glycan only)
notes: RP-HPLC fraction; also called 3-Glycan only
IC50 [1]: 2510 pM
IC50 [4]: 0.89 µg/mL and 8.9 nM

B4: sRAGE-Ig fusion protein, sample 2 fraction 2 (S2F2), 2-glycan species from tunicamycin treated CHO cells (Fc fusion)
chain: B1 chain
modifications: pE1; two of the three N-linked sites (N2, N58, N288) occupied; the filing cannot tell which
notes: RP-HPLC fraction; also called 2-Glycan only; doubly occupied variant
IC50 [1]: 520 pM
IC50 [4]: 0.1 µg/mL and 1 nM

B5: sRAGE-Ig fusion protein, sample 2 fraction 3 (S2F3), 0-glycan (aglycosylated) species from tunicamycin treated CHO cells (Fc fusion)
chain: B1 chain
modifications: pyroglutamic acid (pE) at the N-terminus; no glycan at N2, N58 or N288; mixture with or without C-terminal lysine
notes: RP-HPLC fraction; its mass agrees with the theoretical mass of the unglycosylated fusion protein; also called 0-Glycan only; aglycosylated variant
fold increase in binding compared to 3-glycan S2F1 [7]: 6 fold
IC50 [1]: 420 pM
Relative binding compared to control [2]: 529%
fold increase in binding compared to S1 control [5]: 3 fold
fold increase in binding compared to 3-glycan S1F1 [8]: 10 fold
fold increase in binding compared to S1 control [6]: 5 fold
Relative binding compared to control [3]: 295%
IC50 [4]: 0.034 µg/mL and 0.34 nM

B6: sRAGE-Ig fusion protein, sample 1 fraction 1 (S1F1), 3-glycan species from untreated CHO cells (Fc fusion)
chain: B1 chain
modifications: pE1; N-linked glycans at all three sites N2, N58, N288 (3-glycan only)
notes: RP-HPLC fraction exchanged into a stabilizing buffer before the ELISA; also called 3-Glycan only; fully occupied 3-glycan version
IC50 [1]: 1210 pM
IC50 [4]: 0.39 µg/mL and 3.9 nM

B7: sRAGE-Ig fusion protein, sample 1 fraction 2 (S1F2), 2-glycan species from untreated CHO cells (Fc fusion)
chain: B1 chain
modifications: pE1; two of the three N-linked sites (N2, N58, N288) occupied; the filing cannot tell which
notes: RP-HPLC fraction; also called 2-Glycan only
IC50 [1]: 730 pM
IC50 [4]: 0.104 µg/mL and 1.04 nM
